# Values of other authors in article PMC6679882.
# Target: IL-18BP (Homo sapiens) (UniProt O95998)
# Sequence (O95998 31-194): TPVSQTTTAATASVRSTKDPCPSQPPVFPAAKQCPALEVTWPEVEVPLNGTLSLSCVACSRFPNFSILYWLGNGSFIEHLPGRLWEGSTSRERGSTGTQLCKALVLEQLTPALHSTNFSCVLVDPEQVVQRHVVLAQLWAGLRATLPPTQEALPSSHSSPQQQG
# IL-18, sequence (Q14116 37-193): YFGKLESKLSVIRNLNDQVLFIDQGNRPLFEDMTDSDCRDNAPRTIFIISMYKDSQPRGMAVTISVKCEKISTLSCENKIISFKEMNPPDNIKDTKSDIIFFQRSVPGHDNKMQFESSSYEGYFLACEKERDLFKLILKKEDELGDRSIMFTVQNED
substance,measurement,value
IL-18 (from UniProt Q14116),Kd,0.4 nM
